Reference: patent publication US20120003684A1, “Method and Means for Detecting the Activity of Osteoclasts” (TECHNISCHE UNIVERSITAET DRESDEN, priority 2009, published 2012)

B1: interferon-y: inhibitor of osteoclast activity (protein, UniProt P01579 24-161, looked up)
Interferon gamma: QDPYVKEAENLKKYFNAGHSDVADNGTLFLGILKNWKEESDRKIMQSQIVSFYFKLFKNFKDDQSIQKSVETIKEDMNVKFFNSNKKKRDDFEKLTNYSVTDLNVQRKAIHELIQVMAELSPAAKTGKRKRSQMLFRG
B2: MCSF: macrophage colony-stimulating factor, cytokine added for osteoclast differentiation (protein, UniProt P09603 33-554, looked up)
Macrophage colony-stimulating …: EEVSEYCSHMIGSGHLQSLQRLIDSQMETSCQITFEFVDQEQLKDPVCYLKKAFLLVQDIMEDTMRFRDNTPNAIAIVQLQELSLRLKSCFTKDYEEHDKACVRTFYETPLQLLEKVKNVFNETKNLLDKDWNIFSKNCNNSFAECSSQDVVTKPDCNCLYPKAIPSSDPASVSPHQPLAPSMAPVAGLTWEDSEGTEGSSLLPGEQPLHTVDPGSAKQRPPRSTCQSFEPPETPVVKDSTIGGSPQPRPSVGAFNPGMEDILDSAMGTNWVPEEASGEASEIPVPQGTELSPSRPGGGSMQTEPARPSNFLSASSPLPASAKGQQPADVTGTALPRVGPVRPTGQDWNHTPQKTDHPSALLRDPPEPGSPRISSLRPQGLSNPSTLSAQPQLSRSHSSGSVLPLGELEGRRSTRDRRSPAEPEGGPASEGAARPLPRFNSVPLTDTGHERQSEGSFSPQLQESVFHLLVPSVILVLLAVGGLLFYRWRRRSHQEPQRADSPLEQPEGSPLTQDDRQVELPV

Assays:
[1] = test system: osteoclasts differentiated by RANKL from mouse osteoclast precursor cell line RAW 264.7; test: osteoclast resorption assay on bio-mineralized matrix, inhibition study (FIG. 4); type: cell-based; conditions: RAW 264.7 differentiated by RANKL addition (40 ng/ml)
Description: Moreover, particularly in medical research the examination of inhibiting materials or activators of osteoclast activity is especially of interest. As an example, in FIG. 4 it is shown that the osteoclast activity depends on the inhibitor interferon-y. The osteoclasts were differentiated by RANKL addition (40 ng/ml)) from a mouse osteoclast precursor cell line (RAW 264.7). […] Accordingly, the invention can also be utilized for inhibition studies in relation to osteoclast resorption activity.
For the synthesis of a bone-like physiological matrix, the human osteoblast precursor cell line SAOS-2 (DSMZ ACC 243, DSMZ, Braunschweig) is used in this embodiment. The cells are seeded on cell culturing plates. The differentiation of the cells is realized by addition of ascorbate (300 μmol/l) and β-glycerophosphate (10 mmol/l) to the medium (alpha MEM, Biochrom, 10% FCS). […]
(§1) The resorption assay is based on the combination of two methods with each other. […] For determining the resorption surface area the dried plates were subsequently scanned by a transmitted light scanner and evaluated e.g. by means of Image Quant. In this connection, the scanned surface area was determined and white surfaces differentiated from black surfaces. The volume of the white surface area can then be calculated by means of the calibration line (see FIG. 2) into the actual resorted surface area.

[2] = test system: primary mouse osteoclast precursor cells (primary mouse bone marrow monocytes); test: osteoclast resorption assay on bio-mineralized matrix, MCSF dependency (FIG. 1); type: cell-based; conditions: RANKL (40 ng/ml) present, as a function of MCSF concentration
Excerpt: The sequence is divided into two phases. In phase I, the matrix synthesis with osteoblasts occurs; the latter, after production of the matrix (approximately 25 days), are removed from the matrix. The subsequent phase II encompasses the use of the matrix for the osteoclast resorption assay. In this connection, the method in this example was employed in order to examine the resorption activity of primary mouse osteoclast precursor cells (primary mouse bone marrow monocytes) as a function of the concentration of MCSF (macrophage colony-stimulating factor).
For the synthesis of a bone-like physiological matrix, the human osteoblast precursor cell line SAOS-2 (DSMZ ACC 243, DSMZ, Braunschweig) is used in this embodiment. The cells are seeded on cell culturing plates. […]
as §1

Molecule	osteoclast activity (resorption activity) [1]	resorption activity of the differentiated osteoclasts [2]
B1	concentration-dependent inhibition	–
B2	–	depends on the quantity of added MCSF
